Laboratory results as given in doi:10.1101/2023.03.14.530545 (bioRxiv, 2023).

How the values were obtained:
[1] = target: CnTps1 ΔIDD (Cryptococcus neoformans var. grubii strain H99 | Candida albicans) (UniProt Q6IVK9); assay: SEC
cryo-EM structure = target: the molecule itself; assay: cryo-EM structure

Molecule: CnTps1 ΔIDD (from UniProt Q6IVK9 1-208; Q6IVK9 301-669) (enzyme)
- stoichiometry N [1]: 4

B1: 6xHis-CnTps1 (full-length Cryptococcus neoformans trehalose-6-phosphate synthase) (enzyme, UniProt Q6IVK9 1-670, looked up)
chain: MTTMSNDIPNSPTSTSFTGTFSPAATAANTAANARTSDAPSPTTSSSGPKLETSKEQRLIVVSNRLPVTISKDDNGEYHFKMSSGGLVSALSGCKKTMSFTWIGWPGKDIPMQDRETVNRRLLDEYNCYPVYLSDELADSHYNGSFSNSILWPLFHYHPGEMNFDAAHWLAYREANMRFADVVSSLVQAGDMVWVQDYHLMLLPMLLRSMITGESAQGEMVRQELGRVKEGVDDTVVKEVLKMGPGVAQAEDEGVEMLDDVEEEGGEMDVKSSPKRPHYARGMSTFQKQELVAKEKGKEGIRIGFFLHTPFPSSEIYRILPVRREILLGVLQCDLIGFHTYDYARHFLSSCTRILGLETQPNGIEFDGRYCQVGTFPIGIDPNQFIEGLQKESIVKRLRSLEARFEGVKVIIGVDRLDYIKGIPQKLQALETFLTQHPEWIGKVVLVQLAIPSRQDVEEYQDLRACVNELVGRINGRFGTVESVPIHYMHKSVPFEELTAMYALADACLVTSTRDGMNLVAYEYISSQAERHGSMILSEFAGAAQSFNGSLLINPWDVQSTADAINQALTLSPQQRKTNWQKLFNYVSKYTAEAWGVSFVNELNRLSGQRPSGPTGLAGRRKSGSLSRTSSKASIQRRKSSQSGIVTGLGAAAGAAVNWAQAQVQGGSQT
- stoichiometry N (cryo-EM structure): 4
